Results from patent US20160222130A1.

Target: human Tie2 (on human Tie2-expressing cells) (human) (UniProt Q02763)
Experiment: cell-based or functional assay

Sequence of human Tie2 (on human Tie2-expressing cells) (human) (Q02763 23-1124): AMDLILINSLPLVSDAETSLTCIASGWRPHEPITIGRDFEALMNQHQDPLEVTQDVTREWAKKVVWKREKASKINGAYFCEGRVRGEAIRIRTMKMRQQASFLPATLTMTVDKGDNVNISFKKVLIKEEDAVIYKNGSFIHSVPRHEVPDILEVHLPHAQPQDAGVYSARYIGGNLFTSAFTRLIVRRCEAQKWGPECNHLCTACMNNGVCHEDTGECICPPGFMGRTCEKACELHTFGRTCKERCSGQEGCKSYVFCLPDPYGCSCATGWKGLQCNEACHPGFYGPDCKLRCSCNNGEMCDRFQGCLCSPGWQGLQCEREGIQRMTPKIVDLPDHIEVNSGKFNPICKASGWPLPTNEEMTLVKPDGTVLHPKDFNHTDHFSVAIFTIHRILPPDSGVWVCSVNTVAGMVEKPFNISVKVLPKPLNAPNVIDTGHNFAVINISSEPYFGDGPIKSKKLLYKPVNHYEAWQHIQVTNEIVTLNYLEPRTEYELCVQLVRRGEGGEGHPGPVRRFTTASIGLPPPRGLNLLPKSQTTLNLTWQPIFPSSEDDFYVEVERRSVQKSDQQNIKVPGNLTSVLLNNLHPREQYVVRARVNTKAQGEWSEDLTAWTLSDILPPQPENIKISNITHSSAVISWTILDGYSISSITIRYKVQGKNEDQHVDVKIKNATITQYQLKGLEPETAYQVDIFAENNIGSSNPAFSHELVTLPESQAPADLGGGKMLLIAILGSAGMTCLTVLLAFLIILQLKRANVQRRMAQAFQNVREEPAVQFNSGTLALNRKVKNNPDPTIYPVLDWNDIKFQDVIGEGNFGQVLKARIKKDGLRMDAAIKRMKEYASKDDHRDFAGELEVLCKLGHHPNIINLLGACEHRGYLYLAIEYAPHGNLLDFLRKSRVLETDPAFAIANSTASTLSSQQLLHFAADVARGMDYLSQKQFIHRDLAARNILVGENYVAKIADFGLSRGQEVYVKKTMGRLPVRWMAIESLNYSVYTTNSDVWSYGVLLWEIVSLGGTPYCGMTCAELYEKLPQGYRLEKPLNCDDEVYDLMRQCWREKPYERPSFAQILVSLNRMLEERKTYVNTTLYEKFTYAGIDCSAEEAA

- EC50 value of anti-apoptotic activity, human Tie2-expressing BaF3 cell: 0.0393 µg/mL
- Maximum activity of anti-apoptotic activities (Ang-1 = 100%): 67%
Substance: Ang-2 (R&D, 623-AN-025) (from UniProt O15123 19-496) (ligand)
